Source: publication PMC6393240, “DNA replication initiation in Bacillus subtilis: structural and functional characterization of the essential DnaA–DnaD interaction” (Nucleic Acids Research, 2018)
Positions count from the first letter of the chain named. In names and notes the source's numbering stands.

B1: DnaA domain I (residues 1–81) of Bacillus subtilis DnaA (domain or fragment, UniProt P05648 1-81, looked up)
chain: MENILDLWNQALAQIEKKLSKPSFETWMKSTKAHSLQGDTLTITAPNEFARDWLESRYLHLIADTIYELTGEELSIKFVIP
notes: DnaA, Bacillus subtilis, domain I, residues 1-81; After thrombin cleavage a residual N-terminal Gly-Ser-His leader remains; 15N-labelled (or 13C/15N) where it is the observed partner in NMR, unlabelled in the reverse titration; also called N-terminal domain I of DnaA; DnaA NTD; not shown: His tag, N-terminal, cleaved
B2: DnaD196, truncated DnaD lacking the C-terminal residues 197–232 (domain or fragment)
chain: MKKQQFIDMQEQGTSTIPNLLLTHYKQLGLNETELILLLKIKMHLEKGSYFPTPNQLQEGMSISVEECTNRLRMFIQKGFLFIEECEDQNGIKFEKYSLQPLWGKLYEYIQLAQNQTQERKAEGEQKSLYTIFEEEFARPLSPLECETLAIWQDQDQHDAQLIKHALKEAVLSGKLSFRYIDRILFEWKKNGLKTV
B3: Truncated DnaD DDBH2 domain (residues 129–196) (domain or fragment, Bacillus subtilis, UniProt P39787 129-196, looked up)
chain: LYTIFEEEFARPLSPLECETLAIWQDQDQHDAQLIKHALKEAVLSGKLSFRYIDRILFEWKKNGLKTV
notes: DnaD, Bacillus subtilis, DDBH2 domain truncated at the C-terminus, residues 129-196; Made from the DDBH2 (129-232) construct by Q5 site directed mutagenesis; A residual N-terminal Gly-Ser-His remains after thrombin cleavage; also called DnaD DDBH2 domain truncation; truncated DDBH2; not shown: His tag, N-terminal, cleaved
B4: DnaD, full length, Bacillus subtilis (natural protein)
chain: MKKQQFIDMQEQGTSTIPNLLLTHYKQLGLNETELILLLKIKMHLEKGSYFPTPNQLQEGMSISVEECTNRLRMFIQKGFLFIEECEDQNGIKFEKYSLQPLWGKLYEYIQLAQNQTQERKAEGEQKSLYTIFEEEFARPLSPLECETLAIWQDQDQHDAQLIKHALKEAVLSGKLSFRYIDRILFEWKKNGLKTVEQAKIHSQKFRRVQAKQNEPQKEYKRQVPFYNWLEQ
B5: DnaA(N191C/A198C) (natural protein, Bacillus subtilis, UniProt P05648 1-446, looked up)
chain: MENILDLWNQALAQIEKKLSKPSFETWMKSTKAHSLQGDTLTITAPNEFARDWLESRYLHLIADTIYELTGEELSIKFVIPQNQDVEDFMPKPQVKKAVKEDTSDFPQNMLNPKYTFDTFVIGSGNRFAHAASLAVAEAPAKAYNPLFIYGGVGLGKTHLMHAIGHYVIDHNPSAKVVYLSSEKFTNEFICSIRDNKCVDFRNRYRNVDVLLIDDIQFLAGKEQTQEEFFHTFNTLHEESKQIVISSDRPPKEIPTLEDRLRSRFEWGLITDITPPDLETRIAILRKKAKAEGLDIPNEVMLYIANQIDSNIRELEGALIRVVAYSSLINKDINADLAAEALKDIIPSSKPKVITIKEIQRVVGQQFNIKLEDFKAKKRTKSVAFPRQIAMYLSREMTDSSLPKIGEEFGGRDHTTVIHAHEKISKLLADDEQLQQHVKEIKEQLK
notes: DnaA, Bacillus subtilis, double cysteine mutant N191C/A198C; also called DnaA(N191C/A198C) mutant protein
B6: DnaA(A198C), labelled with Cy3B or Atto647N (natural protein, Bacillus subtilis, UniProt P05648 1-446, looked up)
chain: B5 chain with C191N
modifications: Cy3B-maleimide or Atto647N-maleimide on the single cysteine A198C (mixed 1:1:2 Cy3B-labelled: Atto647N labelled: un-labelled)
notes: DnaA, Bacillus subtilis, single cysteine mutant A198C; Printed once as DnaA^N198C and once as DnaA^A19C in the methods (misprints)

How the values were obtained:
[1] = target: T1, DnaD DDBH2 domain (residues 129–232) of Bacillus subtilis DnaD (Bacillus subtilis, UniProt P39787 129-232); assay: NMR titration; 1H-15N HSQC, chemical shift perturbations; unlabelled DnaD DDBH2 (129-232 or 129-196) titrated into 15N-labelled DnaA domain I (100 μM) up to 8:1 excess; 50 mM potassium phosphate pH 7.4, 100 mM NaCl; 25°C; KD averaged over five residues; conditions: both partners purified
T1 construct: DnaD, Bacillus subtilis, DDBH2 domain, residues 129-232; A residual N-terminal Gly-Ser-His remains after thrombin cleavage; 15N-labelled in the reverse titration; also called C-terminal DDBH2 domain; not shown: His tag, N-terminal, cleaved
T1 sequence (looked up): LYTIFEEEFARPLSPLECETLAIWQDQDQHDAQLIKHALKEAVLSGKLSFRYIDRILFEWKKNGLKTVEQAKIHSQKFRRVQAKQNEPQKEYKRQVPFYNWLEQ

[2] = target: T1, DnaD DDBH2 domain (residues 129–232) of …; assay: NMR titration; reverse titration: unlabelled DnaA domain I titrated into 15N-labelled DnaD DDBH2 (100 μM) up to 8:1 excess; 50 mM potassium phosphate pH 7.4, 100 mM NaCl; 25°C; KD averaged over five residues; conditions: both partners purified
[3] = target: DnaA(N191C), labelled with Cy3B or Atto647N (Bacillus subtilis) (UniProt P05648)
[4] = target: B1; assay: NMR titration; 1H-15N HSQC, chemical shift perturbations; unlabelled DnaD DDBH2 (129-232 or 129-196) titrated into 15N-labelled DnaA domain I (100 μM) up to 8:1 excess; 50 mM potassium phosphate pH 7.4, 100 mM NaCl; 25°C; KD averaged over five residues; conditions: both partners purified
[5] = target: DnaA(N191C), labelled with Cy3B or Atto647N (Bacillus subtilis) (UniProt P05648); remark: listed apart in the source
[6] = target: the molecule itself; assay: cross-linking; BMOE (2 mM) cross-linking of 1.5 μM DnaA(N191C/A198C) with 3 nM 819 bp DNA, 2 mM ATP, 37°C; SDS-PAGE, Coomassie
[7] = target: the molecule itself; assay: FRET or BRET; single-molecule FRET, confocal, room temperature; 1.5 μM DnaA (1:1:2 Cy3B-labelled: Atto647N labelled: un-labelled) with 3 nM 819 bp oriC DNA fragment and 2 mM ATP, 37°C 15 min; measured at ∼100 pM DnaA in imaging buffer

With B1 the Kd [1] was 768 ± 168 µM and the Kd [2] was 665 ± 251 µM.

Binder B2 has a single-molecule FRET of labelled DnaA–DNA filaments: apparent FRET efficiency E* with DnaD196 (24 μM); E* ∼0.7 in its absence [3] of 0.5.

B3: binds [4].

B4 gave a single-molecule FRET of Cy3B/Atto647N-labelled DnaA–DNA filaments: apparent FRET efficiency E* with DnaD (24 μM) added before or after DnaA; E* ∼0.7 without DnaD [5] of 0.5.

B5: binds [6].

B6: binds [7].
